According to paper PMC11290222:
Like-named read-outs stand apart in the source and are kept apart here. Values belong to the molecule of their own block, whether it stands above or below them.

How the values were obtained:
[1] = molecular target: Ubx homeodomain fused to VN (UbxHD) (Drosophila); assay: split reporter (BiFC, NanoBiT); BiFC in HEK293 cells co-transfected with VN- and VC-plasmids and pCAG-mCherry; read 48 h after transfection; percent = Venus fluorescent cells in one hundred red fluorescent cells, three independent triplicates
[2] = molecular target: Ultrabithorax full-length fused to the N-terminal half of Venus (VN-Ubx) (Drosophila) (UniProt P83949); assay: as above
[3] = molecular target: Ubx with E19G in the homeodomain, fused to VN (Ubx^E19G) (Drosophila); assay: as above
[4] = molecular target: Ubx homeodomain fused to VN (UbxHD) (Drosophila); assay: as above; remark: listed apart in the source
[5] = molecular target: AntpΔHD-Ubx BiFC pair (VC-AntpΔHD with VNUbx) (Drosophila) (UniProt P02833); assay: split reporter (BiFC, NanoBiT) + FRET or BRET; BiFC-FRET in HEK293 cells: Venus reconstituted by the Antp-Ubx BiFC as acceptor, third protein fused to ECFP as donor; confocal spectral imaging 48 h after transfection; E-value by FRETTY in ImageJ
[6] = molecular target: Antp^AAAA-Ubx BiFC complex (YPWM mutant Antp with VNUbx) (Drosophila) (UniProt P02833); assay: as above

Sequence of Ubx homeodomain fused to VN (UbxHD) (Drosophila) (P83949 whole entry, the tested form may be a part): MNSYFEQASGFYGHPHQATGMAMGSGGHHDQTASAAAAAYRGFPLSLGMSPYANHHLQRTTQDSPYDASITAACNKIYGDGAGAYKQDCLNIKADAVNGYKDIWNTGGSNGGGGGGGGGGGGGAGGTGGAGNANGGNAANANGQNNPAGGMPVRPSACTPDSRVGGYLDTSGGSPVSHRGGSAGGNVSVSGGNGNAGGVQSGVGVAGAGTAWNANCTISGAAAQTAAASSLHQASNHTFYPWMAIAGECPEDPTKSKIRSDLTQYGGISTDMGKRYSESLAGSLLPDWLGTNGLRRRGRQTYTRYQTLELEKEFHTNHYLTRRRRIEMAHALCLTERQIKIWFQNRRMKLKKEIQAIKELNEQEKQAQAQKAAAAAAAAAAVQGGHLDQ

percent of transfected cells positive in BiFC [1]: 96%
Molecule: Antp homeodomain fused to VC (AntpHD) (domain or fragment)

percent of transfected cells positive in BiFC [2]: 34%
percent of transfected cells positive in BiFC [1]: 15%
Molecule: TBP without the PolyQ stretch, fused to a Venus half for BiFC (TBPΔQ) (from UniProt P20227 1-353) (natural protein)

percent of transfected cells positive in BiFC [2]: 24%
Molecule: Antp lacking homeodomain helix 1, fused to VC (AntpΔH1) (from UniProt P02833 1-378) (natural protein)

percent of transfected cells positive in BiFC [2]: 60%
percent of transfected cells positive in BiFC [3]: 67%
Molecule: Antp homeodomain with E19G, fused to VC (AntpHD^E19G) (domain or fragment)

percent of transfected cells positive in BiFC [2]: 6%
Molecule: Antp with the homeodomain deleted, fused to VC (AntpΔHD) (from UniProt P02833 1-378) (natural protein)

percent of transfected cells positive in BiFC [2]: 12%
Molecule: Antp lacking homeodomain helixes 1 and 2, fused to VC (AntpΔH1-2) (from UniProt P02833 1-378) (natural protein)

percent of transfected cells positive in BiFC [3]: 86%
Molecule: Antennapedia full-length fused to the C-terminal half of Venus (VC-Antp) (from UniProt P02833 1-378) (natural protein)

percent of transfected cells positive in BiFC [4]: 41%
B1: TATA-binding protein fused to a Venus half for BiFC (TBP) (natural protein)
chain: MDQMLSPNFSIPSIGTPLHQMEADQQIVANPVYHPPAVSQPDSLMPAPGSSSVQHQQQQQQSDASGGSGLFGHEPSLPLAHKQMQSYQPSASYQQQQQQQQLQSQAPGGGGSTPQSMMQPQTPQSMMAHMMPMSERSVGGSGAGGGGDALSNIHQTMGPSTPMTPATPGSADPGIVPQLQNIVSTVNLCCKLDLKKIALHARNAEYNPKRFAAVIMRIREPRTTALIFSSGKMVCTGAKSEDDSRLAARKYARIIQKLGFPAKFLDFKIQNMVGSCDVKFPIRLEGLVLTHCNFSSYEPELFPGLIYRMVRPRIVLLIFVSGKVVLTGAKVRQEIYDAFDKIFPILKKFKKQS

FRET E value [5]: 0.12
FRET E value [6]: 0.16
B2: Extradenticle fused to ECFP (natural protein)
chain: MEDPNRMLAHTGGMMAPQGYGLSGQDDGQNAGSENEVRKQKDIGEILQQIMSISEQSLDEAQARKHTLNCHRMKPALFSVLCEIKEKTVLSIRNTQEEEPPDPQLMRLDNMLIAEGVAGPEKGGGGAAAASAAAASQGGSLSIDGADNAIEHSDYRAKLAQIRQIYHQELEKYEQACNEFTTHVMNLLREQSRTRPITPKEIERMVQIIHKKFSSIQMQLKQSTCEAVMILRSRFLDARRKRRNFSKQASEILNEYFYSHLSNPYPSEEAKEELARKCGITVSQVSNWFGNKRIRYKKNIGKAQEEANLYAAKKAAGASPYSMAGPPSGTTTPMMSPAPPQDSMGYPMGSGGYDQQQPYDNSMGGYDPNLHQDLSP
